Source: paper PMC11166852, “Low-temperature features of the psychrophilic chaperonin from Pseudoalteromonas haloplanktis” (Archives of Microbiology, 2024)

Experiments:
[1] = target: Cpn60 from Pseudoalteromonas haloplanktis (Pseudoalteromonas haloplanktis)
[2] = target: Cpn60 from Pseudoalteromonas haloplanktis (Pseudoalteromonas haloplanktis); assay: native gel or EMSA; native PAGE of purified proteins, Coomassie brilliant blue staining
[3] = target: Cpn60 from Pseudoalteromonas haloplanktis (Pseudoalteromonas haloplanktis); assay: SEC; analytical gel filtration, Superdex 75 GL (10/300), buffer C (20 mM MOPS pH 7.2, 150 mM KCl, 5 mM MgCl2), run at 5 °C, in the absence or presence of 1 mM ATP
[4] = target: Cpn60 from Pseudoalteromonas haloplanktis (Pseudoalteromonas haloplanktis); assay: negative-stain electron microscopy; 0.125 µM Cpn60 in buffer C preincubated at 5 °C or 25 °C; where indicated 1 mM ATP, 1 mM ADP and 0.375 µM Cpn10; 1% uranyl acetate
[5] = target: single-ring SR-GroEL (Escherichia coli) (UniProt P0A6F5); assay: SEC; analytical gel filtration, Superdex 75 GL (10/300), buffer C (20 mM MOPS pH 7.2, 150 mM KCl, 5 mM MgCl2), run at 5 °C, in the absence or presence of 1 mM ATP
[6] = target: Cpn60 from Pseudoalteromonas haloplanktis (Pseudoalteromonas haloplanktis); assay: MST; Cpn60 labelled with NT-647-NHS, serial dilutions of Cpn10 in buffer C with 1 mM ADP, 25 °C, Monolith NT.115, MST power 80%
Escherichia coli GroEL = target: T1, Escherichia coli GroEL (Escherichia coli, UniProt P0A6F5 1-548, fluorophore from the NT-647-NHS labeling kit (in the MST measurements only)); assay: as above; settings: both partners purified
T1 construct: GroEL (Cpn60) of Escherichia coli; Tetradecamer (MW 800 kDa); also called Ec GroEL; Ec chaperonin; source: E. coli, purified as described (Weissman et al. 1995; Hayer-Hartl et al. 1996; Kusmiercyk and Martin 2000); copies: 14
T1 sequence (P0A6F5 whole entry): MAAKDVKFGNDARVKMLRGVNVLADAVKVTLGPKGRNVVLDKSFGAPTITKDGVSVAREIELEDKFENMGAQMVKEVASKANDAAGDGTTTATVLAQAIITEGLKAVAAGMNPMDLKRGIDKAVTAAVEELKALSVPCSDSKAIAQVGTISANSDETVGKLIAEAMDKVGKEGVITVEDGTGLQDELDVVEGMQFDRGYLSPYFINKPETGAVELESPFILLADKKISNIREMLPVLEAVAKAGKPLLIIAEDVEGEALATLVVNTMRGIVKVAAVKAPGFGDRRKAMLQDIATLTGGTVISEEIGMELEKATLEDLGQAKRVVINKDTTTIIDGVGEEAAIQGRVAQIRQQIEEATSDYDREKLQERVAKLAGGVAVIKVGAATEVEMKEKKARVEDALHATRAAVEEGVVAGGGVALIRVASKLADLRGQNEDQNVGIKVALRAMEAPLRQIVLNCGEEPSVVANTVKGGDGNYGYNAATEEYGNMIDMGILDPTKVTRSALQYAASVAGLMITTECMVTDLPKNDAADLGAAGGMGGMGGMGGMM

α-casein (from UniProt P02662 16-214) (natural protein)
stimulation of Ph Cpn60 ATPase by a five-fold molar excess of α-casein (10 °C and 25 °C, with or without Ph Cpn10) [1]: 3 fold

Cpn60 from Pseudoalteromonas haloplanktis (natural protein)
stoichiometry N [2]: 14 | stoichiometry N [3]: 14 | stoichiometry N [4]: 14

single-ring SR-GroEL (from UniProt P0A6F5 1-548) (natural protein)
stoichiometry N [5]: 7

B1: Cpn10 from Pseudoalteromonas haloplanktis (natural protein)
chain: MNIRPLHDRVIVKRLEEETKSAGGIVLTGSAAEKSTRGEVVAVGNGRTLDNGDVRALEVKVGDTVLFGSYVEKAEKIEGQEYLIMREDNILGIVG
Kd [6]: 352 nM

B2: Escherichia coli GroES (natural protein, UniProt P0A6F9 1-97, looked up)
chain: MNIRPLHDRVIVKRKEVETKSAGGIVLTGSAAAKSTRGEVLAVGNGRILENGEVKPLDVKVGDIVIFNDGYGVKSEKIDNEEVLIMSESDILAIVEA
notes: GroES (Cpn10) of Escherichia coli; also called Ec GroES; source: E. coli, purified as described (Weissman et al. 1995; Hayer-Hartl et al. 1996; Kusmiercyk and Martin 2000)
Kd (Escherichia coli GroEL): 8.8 ± 1.8 nM
